Target: the molecule itself
Test: SEC; Nesprin-2-SMC released from GST by thrombin, on a Sephadex G-200 gel filtration column; markers ovalbumin 43 kDa, conalbumin 75 kDa, aldolase 158 kDa; fractions also checked by SDS-PAGE

B1: Nesprin-2-SMC (domain or fragment, human, UniProt Q8WXH0 1436-1766, looked up)
chain: NNELLKNIQDVQSQISKIGLKDPTVPAVKHRKKSLIRLDKVLDEYEEEKRHLQEMANSLPHFKDGREKTVNQQCQNTVVLWENTKALVTECLEQCGRVLELLKQYQNFKSILTTLIQKEESVISLQASYMGKENLKKRIAEIEIVKEEFNEHLEVVDKINQVCKNLQFYLNKMKTFEEPPFEKEANIIVDRWLDINEKTEDYYENLGRALALWDKLFNLKNVIDEWTEKALQKMELHQLTEEDRERLKEELQVHEQKTSEFSRRVAEIQFLLQSSEIPLELQVMESSILNKMEHVQKCLTGESNCHALSGSTAELREDLDQAKTQIGMTES
notes: Nesprin-2, human, SMC domain, aa 1436-1766, spectrin repeats 11-13; Calculated molecular weight 38.78 kDa (39 kDa); also called Nesprin-2-SMC domain; SMC polypeptide; source: E. coli XL-1 blue, purified (Glutathione-Sepharose 4B, released from GST by thrombin cleavage); not shown: GST, N-terminal, cleaved
- binding result: binds

Reference: article PMC5763115, “Nesprin-2 Interacts with Condensin Component SMC2” (International Journal of Cell Biology, 2017)
